Data: patent publication EP4803550A1 (Yantai Patronus Biotech Co., Ltd., dated 2026)

B1: RD012-2 (fHBP V3 domain 1-fHBP V1 domain 2-fHBP V1 domain 1T1-fHBP V2 domain 2-(GSG)2-4T-His) (other)
chain: SSGSGSGGGGVAADIGTGLADALTAPLDHKDKGLKSLTLEDSISQNGTLTLSAQGAEKTFKVGDKDNSLNTGKLKNDKISRFDFVQKIEVDGQTITLASGEFQIYKQDHSAVVALQIEKINNPDKIDSLINQRSFLVSGLGGEHTSFDKLPKDVMATYRGTAFGSDDAGGKLTYTIDFAAKQGHGKIEHLKSPELNVDLAVAYIKPDEKHHAVISGSVLYNQDEKGSYSLGIFGEKAQEVAGSAEVETANGIHHIGLAAKQGSGGGGVTADIGTGLADALTAPLDHKDKGLKSLTLEDSISQNGTLTLSAQGAEKTYGNGDSLNTGKLKNDKVSRFDFIRQIEVDGQLITLESGEFQVYKQSHSALTALQTEQEQDPEHSEKMVAKRRFRIGDIAGEHTAFNQLPDGKAEYHGKAFSSDDAGGKLTYTIDFAAKQGHGKIEHLKTPEQNVELAAAELKADEKSHAVILGDTRYGSEEKGTYHLALFGDRAQEIAGSATVKIGEKVHEIGIAGKQGSGGSGAHIVMVDAYKPTKHHHHHH
notes: Expressed in E. coli BL21(DE3), purified by His-trap and SEC; also called RD012-2 fusion protein; MenB antigen
B2: RD012-1 (fHBP V3 domain 1-fHBP V1 domain 2-(G)-fHBP V1 domain 1-fHBP V2 domain 2-(GSG)2-4T-His) (other)
chain: SSGSGSGGGGVAADIGTGLADALTAPLDHKDKGLKSLTLEDSISQNGTLTLSAQGAEKTFKVGDKDNSLNTGKLKNDKISRFDFVQKIEVDGQTITLASGEFQIYKQDHSAVVALQIEKINNPDKIDSLINQRSFLVSGLGGEHTSFDKLPKDVMATYRGTAFGSDDAGGKLTYTIDFAAKQGHGKIEHLKSPELNVDLAVAYIKPDEKHHAVISGSVLYNQDEKGSYSLGIFGEKAQEVAGSAEVETANGIHHIGLAAKQGSSGGGGSGGGGVTADIGTGLADALTAPLDHKDKGLKSLTLEDSISQNGTLTLSAQGAEKTYGNGDSLNTGKLKNDKVSRFDFIRQIEVDGQLITLESGEFQVYKQSHSALTALQTEQEQDPEHSEKMVAKRRFRIGDIAGEHTAFNQLPDGKAEYHGKAFSSDDAGGKLTYTIDFAAKQGHGKIEHLKTPEQNVELAAAELKADEKSHAVILGDTRYGSEEKGTYHLALFGDRAQEIAGSATVKIGEKVHEIGIAGKQGSGGSGAHIVMVDAYKPTKHHHHHH
notes: Expressed in E. coli BL21(DE3), purified by His-trap and SEC; also called RD012-1 fusion protein; MenB antigen

Target: T1, NPM-4C (binding peptide 2-NPM fusion protein)
T1 construct: Self-assembling nanoparticle protein expressed in E. coli; also called particle protein component; VLP carrier NPM-4C
Assay: covalent binding reaction (4T/4C) with NPM-4C at 22 °C for 24 h, SEC purification, SDS-PAGE

| Binder | binding result |
| --- | --- |
| B1 | binds |
| B2 | binds |
